Results as given in US20250051464A1.

Legend:
[1] = biological target: Human EphA2 (ephrin receptor A2) (human) (UniProt P29317); experiment: IHC/IF score on frozen human tumor tissue, ESC
[2] = biological target: Human EphA2 (ephrin receptor A2) (human) (UniProt P29317); experiment: IHC/IF score on frozen human tumor tissue, Her2+ BRC
[3] = biological target: Human EphA2 (ephrin receptor A2) (human) (UniProt P29317); experiment: IHC/IF score on frozen human tumor tissue, NSCLC-Adeno
[4] = biological target: Human EphA2 (ephrin receptor A2) (human) (UniProt P29317); experiment: IHC/IF score on frozen human tumor tissue, CRC
[5] = biological target: Human EphA2 (ephrin receptor A2) (human) (UniProt P29317); experiment: IHC/IF score on frozen human tumor tissue, UCEC-papillary
[6] = biological target: Human EphA2 (ephrin receptor A2) (human) (UniProt P29317); experiment: IHC/IF score on frozen human tumor tissue, STS
[7] = biological target: Human EphA2 (ephrin receptor A2) (human) (UniProt P29317); experiment: IHC/IF score on frozen human tumor tissue, NSCLC-SQ
[8] = biological target: Human EphA2 (ephrin receptor A2) (human) (UniProt P29317); experiment: IHC/IF score on frozen human tumor tissue, RCC-clear cell
[9] = biological target: Human EphA2 (ephrin receptor A2) (human) (UniProt P29317); experiment: IHC/IF score on frozen human tumor tissue, UCEC-endometriod
[10] = biological target: Human EphA2 (ephrin receptor A2) (human) (UniProt P29317); experiment: IHC/IF score on frozen human tumor tissue, RCC-papillary
[11] = biological target: Human EphA2 (ephrin receptor A2) (human) (UniProt P29317); experiment: IHC/IF score on frozen human tumor tissue, UCEC-clear cell
[12] = biological target: Human EphA2 (ephrin receptor A2) (human) (UniProt P29317); experiment: IHC/IF score on frozen human tumor tissue, PANC
[13] = biological target: Human EphA2 (ephrin receptor A2) (human) (UniProt P29317); experiment: IHC/IF score on frozen human tumor tissue, URO
[14] = biological target: Human EphA2 (ephrin receptor A2) (human) (UniProt P29317); experiment: IHC/IF score on frozen human tumor tissue, PROC
[15] = biological target: Human EphA2 (ephrin receptor A2) (human) (UniProt P29317); experiment: IHC/IF score on frozen human tumor tissue, HNC
[16] = biological target: Human EphA2 (ephrin receptor A2) (human) (UniProt P29317); experiment: IHC/IF score on frozen human tumor tissue, MELA
[17] = biological target: Human EphA2 (ephrin receptor A2) (human) (UniProt P29317); experiment: IHC/IF score on frozen human tumor tissue, ANC
[18] = biological target: Human EphA2 (ephrin receptor A2) (human) (UniProt P29317); experiment: IHC/IF score on frozen human tumor tissue, OVA
[19] = biological target: Human EphA2 (ephrin receptor A2) (human) (UniProt P29317); experiment: IHC/IF score on frozen human tumor tissue, TNBC
[20] = biological target: Human EphA2 (ephrin receptor A2) (human) (UniProt P29317); experiment: IHC/IF score on frozen human tumor tissue, GAC
[21] = biological target: Human EphA2 (ephrin receptor A2) (human) (UniProt P29317); experiment: IHC/IF score on frozen human tumor tissue, ER+ BRC

Chain of Human EphA2 (ephrin receptor A2) (human) (P29317 24-976 limits assumed): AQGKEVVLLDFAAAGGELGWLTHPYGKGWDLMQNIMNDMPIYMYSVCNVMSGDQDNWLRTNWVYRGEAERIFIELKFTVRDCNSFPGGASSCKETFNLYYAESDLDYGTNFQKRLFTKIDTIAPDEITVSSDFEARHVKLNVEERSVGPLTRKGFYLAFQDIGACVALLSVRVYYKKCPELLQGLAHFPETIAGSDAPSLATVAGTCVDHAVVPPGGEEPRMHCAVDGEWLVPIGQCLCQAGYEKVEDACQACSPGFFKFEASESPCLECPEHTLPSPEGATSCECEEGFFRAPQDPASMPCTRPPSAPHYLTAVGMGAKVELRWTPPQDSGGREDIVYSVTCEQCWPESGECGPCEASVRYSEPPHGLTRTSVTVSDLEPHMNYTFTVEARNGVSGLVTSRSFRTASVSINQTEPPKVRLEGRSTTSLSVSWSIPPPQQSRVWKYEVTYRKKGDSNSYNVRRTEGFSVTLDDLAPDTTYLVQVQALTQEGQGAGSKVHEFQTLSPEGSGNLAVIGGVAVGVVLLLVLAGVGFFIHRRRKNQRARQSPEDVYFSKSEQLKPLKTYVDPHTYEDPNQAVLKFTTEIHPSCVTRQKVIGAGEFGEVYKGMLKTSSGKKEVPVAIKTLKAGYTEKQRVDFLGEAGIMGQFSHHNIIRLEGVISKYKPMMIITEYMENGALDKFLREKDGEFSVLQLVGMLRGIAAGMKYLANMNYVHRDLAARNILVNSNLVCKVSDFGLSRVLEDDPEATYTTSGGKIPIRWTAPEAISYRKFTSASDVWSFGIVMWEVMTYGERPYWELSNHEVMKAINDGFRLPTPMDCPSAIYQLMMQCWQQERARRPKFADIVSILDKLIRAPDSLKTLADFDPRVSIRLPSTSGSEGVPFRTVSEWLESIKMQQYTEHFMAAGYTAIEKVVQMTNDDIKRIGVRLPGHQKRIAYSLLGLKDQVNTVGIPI

Row | IHC score [1] | IHC score [2] | IHC score [3] | IHC score [4] | IHC score [5] | IHC score [6] | IHC score [7] | IHC score [8] | IHC score [9] | IHC score [10] | IHC score [11] | IHC score [12] | IHC score [13] | IHC score [14] | IHC score [15] | IHC score [16] | IHC score [17] | IHC score [18] | IHC score [19] | IHC score [20] | Substance | also measured
1 | 1 | 1 | 1 | 1 | 2 | 1 | 1 | 1 | 1 | 1 | 2 | 1 | 1 | 1 | 1 | 2 | 1 | 1 | 1 | 1 | LS-C100255-400 (AA 30-60) (antibody) | IHC score [21]: 1
2 | 2 | 2 | 2 | 1 | 3 | 2 | 2 | 1 | 2 | 1 | 2 | 1 | 1 | 1 | 2 | 3 | 2 | 2 | 1 | 1 | LS-C36249-100 (extracellular) (antibody) | IHC score [21]: 1
3 | 2 | 1 | 2 | 1 | 2 | 1 | 2 | 1 | 2 | 1 | 2 | 2 | 1 | 1 | 2 | 3 | 2 | 2 | 1 | 1 | MAB3035 (Gln25-Asn534) (antibody) | IHC score [21]: 1

The remaining lines, values behind:

Row | Substance | IHC score [1] | IHC score [2] | IHC score [3] | IHC score [4] | IHC score [5] | IHC score [6] | IHC score [7] | IHC score [8] | IHC score [9] | IHC score [10] | IHC score [11] | IHC score [12] | IHC score [13] | IHC score [14] | IHC score [15] | IHC score [16] | IHC score [17] | IHC score [18] | IHC score [19] | IHC score [20] | also measured
4 | Ab73254 (extracellular) (antibody) | 1 | 1 | 2 | 1 | 1 | 1 | 2 | 1 | 1 | 1 | 2 | 1 | 1 | 1 | 1 | 2 | 1 | 1 | 1 | 1 | IHC score [21]: 1
5 | 6997S (around Arg907) (antibody) | 2 | 1 | 1 | 1 | 2 | 1 | 1 | 1 | 1 | 1 | 2 | 1 | 1 | 1 | 1 | 2 | 2 | 1 | 1 | 1 | IHC score [21]: 1
6 | LS-B1794-50 (AA 450-500) (antibody) | 1 | 1 | 2 | 1 | 2 | 1 | 1 | 1 | 1 | 2 | 2 | 1 | 1 | 1 | 1 | 2 | 1 | 1 | 1 | 1 | IHC score [21]: 1
